The record followed here is paper PMC3807654 (Cell Reports, 2012).

The target of this assay is human α-synuclein, monomeric, full length (human, UniProt P37840 1-140). Nature of the assay: fluorescence polarisation. Background: Polarisation of emitted light reports the rotation of a fluorescent probe.

B1: Atto550-labeled SERF1a (Cys-SERF1a-Cys, N- and C-terminal double cysteine mutant) (natural protein)
chain: MC(Atto550 maleimide)ARGNQRELARQKNMKKTQEISKGKRKEDSLTASQRKQRDSEIMQEKQKAANEKKSMQTREKC(Atto550 maleimide)
What is called Kd is a measure of binding affinity in units of concentration. A lower Kd goes with a tighter complex. In turn, B1 registered a dissociation constant Kd of 8.04 ± 2.09 µM.
